Measured values taken from paper doi:10.1101/2023.11.17.567546.

Experiments:
Hfq [1] = target: Hfq (UniProt P0A6X3); test: EMSA
Hfq [2] = target: Hfq (UniProt P0A6X3); test: lead acetate footprinting

Hfq, sequence (P0A6X3 whole entry): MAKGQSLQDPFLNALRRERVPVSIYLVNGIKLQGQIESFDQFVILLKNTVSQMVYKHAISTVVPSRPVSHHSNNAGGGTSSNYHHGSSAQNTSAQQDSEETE

GCGCCAACGUCGCAUCUGGUUCUCAUCAUCGCGUAAUAUUGAUGAAACCUGCGGCAUCCUUCUUCUAUUGUGGAUGCUUUACAAUGAUUAAAAAAGCUUCGCUGCUGACGGCGUGUUCCGUCACGGCAUUUUCCGCUUGGGCACAGGAUACCAGCCCGGAUACUCUCGUCGUUACUGCUAACCGUUUUGAACAGCCGCGCAGCACUGUGCUUGCACCAACCACCGUUGUGACCCGUCAGGAUAU [btuB mRNA -80 to +161]
binding (Hfq [1]): binds | binding (Hfq [2]): binds
